± gives the standard deviation of the averaged measurements.

The data set deals with ATP. Description: switch fluorescence ratio, 500 uM ATP over buffer (Cy3 cluster intensity, sum of 5 cycles each) (fold (ratio)); higher = stronger signal-on switching upon ATP binding; sequences stand for … in TCGTCGGCAGCGTCAGATGTGTATAAGAGACAGTTTTTTTTTTTTTTTTTTTTTTTTT…TC. The following applies: aptamer strand: ATP DNA aptamer (quencher-CACCTGGGGGAGTATTGCGGAGGAAGG + anchor), 100 nM annealed; ATP concentration: 500 uM. The essentials:
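The quencher-labelled ATP aptamer, at 100 nM, was annealed to Cy3-labelled switching-strand clusters on a modified Illumina MiSeq flow-cell. The clusters were imaged in selection buffer, then after 15 min with 500 uM ATP at 22 °C, and this buffer/ATP cycle ran five times with NaOH stripping and re-annealing between runs. Per-cluster fluorescence ratios, summed target-cycle over summed buffer-cycle Cy3 intensity, were averaged per switch-domain sequence. Clusters outside 100-1000 RFU were excluded.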
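Note: ATP exposure 15 min at 22 °C before imaging.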

Take TTGGCTCGCA: the switch fluorescence ratio turned out to be 1.11 ± 0.15.

Turning to TTGGGAAAAT, the switch fluorescence ratio stood at 1.01 ± 0.05.

Take TTGGGAACGT: the switch fluorescence ratio turned out to be 1 ± 0.11.

For TTGGGAAGCG, the switch fluorescence ratio was found to be 1.001 ± 0.0093.

On to TTGGGACAAA, for which the switch fluorescence ratio stood at 1.05 ± 0.061.

As to TTGGGACGTC, the switch fluorescence ratio stood at 1.02 ± 0.048.

Take TTGGGACTTA: the switch fluorescence ratio was determined as 1.01 ± 0.03.

With TTGGGAGAAT, the switch fluorescence ratio is 1.02 ± 0.09.

Regarding TTGGGAGGTG, the switch fluorescence ratio came out at 1.05 ± 0.051.

Take TTGGGATACG: the switch fluorescence ratio was found to be 1.18 ± 0.23.

For the sequence TTGGGATTTT, the switch fluorescence ratio was determined as 1.01 ± 0.033.

In the case of TTGGGCAGGG, the switch fluorescence ratio was found to be 0.982 ± 0.036.

In the case of TTGGGCGGGG, the switch fluorescence ratio was determined as 1.03 ± 0.043.

Consider TTGGGCGGGT, for which the switch fluorescence ratio stood at 0.994 ± 0.041.

In the case of TTGGGCGGTG, the switch fluorescence ratio came out at 1.01 ± 0.018.

As for TTGGGCTATT, the switch fluorescence ratio turned out to be 1.01 ± 0.015.

As for TTGGGGAATA, the switch fluorescence ratio amounted to 1.05 ± 0.035.

As for TTGGGGAGGA, the switch fluorescence ratio is 0.998 ± 0.044.

For the sequence TTGGGGAGTA, the switch fluorescence ratio turned out to be 0.9929 ± 0.0089.

TTGGGGCACG: the switch fluorescence ratio was determined as 0.99 ± 0.02.

As for TTGGGGCACT, the switch fluorescence ratio is 0.985 ± 0.016.

With TTGGGGCGGA, the switch fluorescence ratio is 0.9923 ± 0.0095.

Turning to TTGGGGCGGT, the switch fluorescence ratio amounted to 1.05 ± 0.15.

As for TTGGGGCGTG, the switch fluorescence ratio stood at 0.971 ± 0.057.

For TTGGGGGCTA, the switch fluorescence ratio was 1 ± 0.04.

As to TTGGGGGTAG, the switch fluorescence ratio came out at 1.04 ± 0.13.

In the case of TTGGGGGTAT, the switch fluorescence ratio is 1.05 ± 0.068.

On to TTGGGGGTGG, for which the switch fluorescence ratio was found to be 1.01 ± 0.04.

For TTGGGGTCTG, the switch fluorescence ratio was 1.02 ± 0.023.

For the sequence TTGGGGTGCG, the switch fluorescence ratio turned out to be 0.995 ± 0.011.

As for TTGGGGTGGC, the switch fluorescence ratio amounted to 0.965 ± 0.061.

As for TTGGGGTGGT, the switch fluorescence ratio came to 0.993 ± 0.032.

Take TTGGGGTGTC: the switch fluorescence ratio was determined as 1.01 ± 0.021.

As to TTGGGGTTGT, the switch fluorescence ratio turned out to be 1.03 ± 0.12.

With TTGGGGTTTT, the switch fluorescence ratio came out at 1.01 ± 0.037.

In the case of TTGGGTACGG, the switch fluorescence ratio came out at 1.03 ± 0.016.

For the sequence TTGGGTAGGC, the switch fluorescence ratio came to 0.985 ± 0.022.

On to TTGGGTCGAT, for which the switch fluorescence ratio amounted to 0.985 ± 0.024.

As to TTGGGTCGGC, the switch fluorescence ratio was found to be 1.0032 ± 0.001.

With TTGGGTGCCT, the switch fluorescence ratio came out at 0.999 ± 0.028.

For the sequence TTGGGTGCTT, the switch fluorescence ratio was found to be 1.02 ± 0.041.

For TTGGGTGGTG, the switch fluorescence ratio amounted to 0.983 ± 0.033.

Consider TTGGGTGGTT, for which the switch fluorescence ratio stood at 0.9815 ± 0.0026.

Take TTGGGTTGAG: the switch fluorescence ratio worked out at 0.999 ± 0.016.

For the sequence TTGGGTTGGG, the switch fluorescence ratio is 0.987 ± 0.018.

In the case of TTGGGTTTTG, the switch fluorescence ratio was determined as 0.994 ± 0.031.

For the sequence TTGGTAAAAA, the switch fluorescence ratio was determined as 1.25 ± 0.41.

Take TTGGTAAAAG: the switch fluorescence ratio worked out at 1.02 ± 0.033.

As to TTGGTAAAAT, the switch fluorescence ratio is 0.978 ± 0.041.

For the sequence TTGGTAAAGG, the switch fluorescence ratio amounted to 0.999 ± 0.048.

For TTGGTATATT, the switch fluorescence ratio turned out to be 1.02 ± 0.016.

For TTGGTCGCTG, the switch fluorescence ratio was 1.01 ± 0.011.

In the case of TTGGTCGTAC, the switch fluorescence ratio stood at 1.03 ± 0.015.

On to TTGGTCTGGG, for which the switch fluorescence ratio was found to be 1.01 ± 0.064.

As for TTGGTGACCG, the switch fluorescence ratio was 1.03 ± 0.036.

On to TTGGTGAGAG, for which the switch fluorescence ratio stood at 0.997 ± 0.019.

For the sequence TTGGTGCGGG, the switch fluorescence ratio amounted to 0.98 ± 0.044.

For TTGGTGGAAT, the switch fluorescence ratio was determined as 1.06 ± 0.093.

With TTGGTGGGGT, the switch fluorescence ratio is 1 ± 0.033.

As to TTGGTGGTT, the switch fluorescence ratio was 0.9809 ± 0.0089.

As for TTGGTGTGGG, the switch fluorescence ratio stood at 0.986 ± 0.045.

For TTGGTTACAG, the switch fluorescence ratio is 0.978 ± 0.031.

On to TTGGTTAGTT, for which the switch fluorescence ratio came out at 0.981 ± 0.027.

For the sequence TTGGTTCGC, the switch fluorescence ratio was 0.994 ± 0.094.

As to TTGGTTGGAC, the switch fluorescence ratio turned out to be 1.028 ± 0.0092.

For the sequence TTGGTTGGCT, the switch fluorescence ratio worked out at 1.01 ± 0.018.
